Assay [1] concerns the target HIV-1 Env (HXB2 strain) homotrimer with N656D in gp41 (HIV-1 (HXB2 strain)).
Assay [2] has as its target HIV-1 Env (HXB2 strain) homotrimer with Q552R/N637K in gp41 (HIV-1 (HXB2 strain)).
For assay [3], the target named is HIV-1 Env (HXB2 strain) homotrimer with L544S in gp41 (HIV-1 (HXB2 strain)).
In assay [4] the target is HIV-1 Env (HXB2 strain) homotrimer with V549A in gp41 (HIV-1 (HXB2 strain)).

The results in this text go back to article PMC5222517.

Bounds are passed on as bounds.

With “5-Helix, mutant version with L556A/V570A in all three N-HR segments (from UniProt P04578 543-582; P04578 625-661; P04578 543-582; P04578 625-661; P04578 543-582) (designed binder)”, in assay [1], the fold resistance to 5H (LAVA) in inhibition of infection by pseudotyped HIV-1, N656D against wild type Env (HXB2) homotrimers was > 100 fold.
Consider “C-peptide C37-KYI (from UniProt P04578 625-661)”, for which, in assay [2], the IC50.1 (high potency phase, fraction f = 0.31) of C37-KYI inhibition of infection by pseudotyped HIV-1, two-site inhibition model (HOS-CXCR4+ cells) was 8 nM and the IC50.2 (low potency phase, fraction 1 - f) of C37-KYI inhibition of infection by pseudotyped HIV-1, two-site inhibition model (HOS-CXCR4+ cells) is 180 nM.
On to C-peptide T20, for which the fold resistance to T20 in inhibition of infection by pseudotyped HIV-1, L544S against wild type Env (HXB2) homotrimers (U87.CD4.CXCR4 cells) in assay [3] is 30 fold. Further, in assay [4], the fold resistance to T20 in inhibition of infection by pseudotyped HIV-1, V549A against wild type Env (HXB2) homotrimers (U87.CD4.CXCR4 cells) came out at 50 fold.
